# Test results from the Immune Epitope Database (IEDB).
# Legend:
# HLA-A*02:12 [1] = assay: IEDB peptide-MHC binding, purified MHC/competitive/fluorescence; filed as Kd, often an IC50 or EC50 that approximates it; ≥ and ≤ were set here for values at or beyond the usual limits of such assays; conditions: source organism: Entamoeba histolytica HM-1:IMSS
# HLA-B*40:01 = assay: IEDB peptide-MHC binding, purified MHC/direct/fluorescence; filed as Kd, often an IC50 or EC50 that approximates it; ≥ and ≤ were set here for values at or beyond the usual limits of such assays; conditions: source organism: Mycobacterium tuberculosis
# HLA-C*14:02 = assay: as above
# HLA-A*02:01 [2] = assay: IEDB peptide-MHC binding, purified MHC/competitive/radioactivity; ≥ and ≤ were set here for values at or beyond the usual limits of such assays
# HLA-B*07:02 [3] = assay: IEDB peptide-MHC binding, purified MHC/direct/fluorescence; filed as Kd, often an IC50 or EC50 that approximates it; ≥ and ≤ were set here for values at or beyond the usual limits of such assays
# HLA-B*15:01 [4] = assay: as above
# HLA-B*51:01 [5] = assay: as above
# HLA-A*24:02 = assay: as above
# HLA-A*26:01 [6] = assay: as above; conditions: source organism: Mammarenavirus juninense
# HLA-C*12:03 = assay: as above; conditions: source organism: Mammarenavirus machupoense
# HLA-B*35:01 [7] = assay: IEDB peptide-MHC binding, purified MHC/competitive/fluorescence; filed as Kd, often an IC50 or EC50 that approximates it; ≥ and ≤ were set here for values at or beyond the usual limits of such assays; conditions: source organism: Mammarenavirus machupoense
# HLA-A*02:03 = assay: IEDB peptide-MHC binding, purified MHC/direct/fluorescence; filed as Kd, often an IC50 or EC50 that approximates it; ≥ and ≤ were set here for values at or beyond the usual limits of such assays; conditions: source organism: Orthohantavirus andesense
# HLA-A*02:11 = assay: as above; conditions: source organism: Orthohantavirus andesense
# HLA-A*02:12 [8] = assay: as above; conditions: source organism: Orthohantavirus andesense
# HLA-A*02:16 = assay: as above; conditions: source organism: Orthohantavirus andesense
# HLA-A*02:19 = assay: as above; conditions: source organism: Orthohantavirus andesense
# HLA-A*03:01 [9] = assay: as above; conditions: source organism: Orthohantavirus andesense
# HLA-A*24:03 = assay: as above; conditions: source organism: Orthohantavirus andesense
# HLA-A*29:02 = assay: as above; conditions: source organism: Orthohantavirus andesense
# HLA-A*68:02 = assay: as above; conditions: source organism: Orthohantavirus andesense
# HLA-A*02:01 [10] = assay: IEDB peptide-MHC binding, purified MHC/competitive/fluorescence; filed as Kd, often an IC50 or EC50 that approximates it; ≥ and ≤ were set here for values at or beyond the usual limits of such assays
# HLA-A*26:01 [11] = assay: as above; conditions: source organism: Orthohantavirus andesense
# HLA-A*69:01 [12] = assay: as above; conditions: source organism: Orthohantavirus andesense
# HLA-B*15:01 [13] = assay: as above; conditions: source organism: Orthohantavirus andesense
# HLA-B*18:01 = assay: as above; conditions: source organism: Orthohantavirus andesense
# HLA-B*27:03 = assay: as above; conditions: source organism: Orthohantavirus andesense
# HLA-B*39:01 = assay: as above
# HLA-B*46:01 = assay: as above; conditions: source organism: Orthohantavirus andesense
# HLA-B*58:01 = assay: as above; conditions: source organism: Orthohantavirus andesense
# HLA-A*31:01 [14] = assay: IEDB peptide-MHC binding, purified MHC/direct/fluorescence; filed as Kd, often an IC50 or EC50 that approximates it; ≥ and ≤ were set here for values at or beyond the usual limits of such assays; conditions: source organism: Homo sapiens
# HLA-B*27:05 = assay: as above; conditions: source organism: Homo sapiens
# HLA-C*06:02 = assay: as above
# HLA-A*02:01 [15] = assay: as above; conditions: source organism: Camelpox virus M-96
# HLA-A*69:01 [16] = assay: as above; conditions: source organism: Camelpox virus M-96
# HLA-A*11:01 [17] = assay: IEDB peptide-MHC binding, purified MHC/competitive/fluorescence; filed as Kd, often an IC50 or EC50 that approximates it; ≥ and ≤ were set here for values at or beyond the usual limits of such assays; conditions: source organism: Influenza A virus (A/goose/Hong Kong/739.2/2002(H5N1))
# HLA-A*03:01 [18] = assay: IEDB peptide-MHC binding, purified MHC/competitive/radioactivity; filed as Kd, often an IC50 or EC50 that approximates it; ≥ and ≤ were set here for values at or beyond the usual limits of such assays; conditions: source organism: Vaccinia virus WR
# HLA-A*11:01 [19] = assay: as above; conditions: source organism: Vaccinia virus WR
# HLA-A*31:01 [20] = assay: as above; conditions: source organism: Vaccinia virus WR
# HLA-A*33:01 = assay: as above; conditions: source organism: Vaccinia virus WR
# HLA-A*68:01 = assay: as above; conditions: source organism: Vaccinia virus WR
# HLA-B*07:02 [21] = assay: as above; conditions: source organism: Vaccinia virus WR
# HLA-B*35:01 [22] = assay: as above; conditions: source organism: Vaccinia virus WR
# HLA-B*51:01 [23] = assay: as above; conditions: source organism: Vaccinia virus WR
# HLA-B*53:01 = assay: as above; conditions: source organism: Vaccinia virus WR
# HLA-B*54:01 = assay: as above; conditions: source organism: Vaccinia virus WR
# [24] = source organism: Mycobacterium tuberculosis H37Ra
# [25] = source organism: Burkholderia mallei
# [26] = source organism: Orthohantavirus andesense
# [27] = source organism: Yersinia pestis CA88-4125
# [28] = source organism: Yersinia pestis
# [29] = source organism: Bacillus anthracis str. A0488
# [30] = source organism: Vaccinia virus GLV-1h68
sequence,measurement,setting,value
NQNDNEETV,Kd,HLA-A*02:12 [1],40.4 nM
AEAASATPL,Kd,HLA-B*40:01,21.9 nM
same,Kd,HLA-C*14:02; [24],≥ 20000 nM
LNTSAGFPYV,IC50,HLA-A*02:01 [2]; source organism: Rhinovirus C,500 nM
NPVDGSIWY,Kd,HLA-B*07:02 [3]; [25],≥ 20000 nM
same,Kd,HLA-B*15:01 [4]; source organism: Burkholderia mallei ATCC 23344,≥ 20000 nM
same,Kd,HLA-B*51:01 [5]; [25],≥ 20000 nM
IYPEWYFLW,Kd,HLA-A*24:02; source organism: Campylobacter jejuni subsp. jejuni 81116,≤ 1 nM
DAMPGVLSY,Kd,HLA-A*26:01 [6],2.1 nM
same,Kd,HLA-C*12:03,≥ 20000 nM
same,Kd,HLA-B*35:01 [7],0.5 nM
ALDGGNKHFL,IC50,HLA-A*02:01 [2]; source organism: Homo sapiens,41.7 nM
NALEKALRW,Kd,HLA-A*02:03,≥ 20000 nM
same,Kd,HLA-A*02:11,≥ 20000 nM
same,Kd,HLA-A*02:12 [8],≥ 20000 nM
same,Kd,HLA-A*02:16,≥ 20000 nM
same,Kd,HLA-A*02:19,≥ 20000 nM
same,Kd,HLA-A*03:01 [9],≥ 20000 nM
same,Kd,HLA-A*24:03,≥ 20000 nM
same,Kd,HLA-A*29:02,≥ 20000 nM
same,Kd,HLA-A*68:02,≥ 20000 nM
same,Kd,HLA-A*02:01 [10]; [26],≥ 20000 nM
same,Kd,HLA-A*26:01 [11],≥ 20000 nM
same,Kd,HLA-A*69:01 [12],≥ 20000 nM
same,Kd,HLA-B*15:01 [13],≥ 20000 nM
same,Kd,HLA-B*18:01,≥ 20000 nM
same,Kd,HLA-B*27:03,≥ 20000 nM
same,Kd,HLA-B*39:01; [26],≥ 20000 nM
same,Kd,HLA-B*46:01,≥ 20000 nM
same,Kd,HLA-B*58:01,25.5 nM
TFAWASFLW,Kd,HLA-A*24:02; [27],3 nM
TPFEVETRL,Kd,HLA-B*07:02 [3]; [28],836 nM
same,Kd,HLA-B*15:01 [4]; [27],≥ 20000 nM
same,Kd,HLA-B*51:01 [5]; [28],≥ 20000 nM
GPAEARKVC,Kd,HLA-B*51:01 [5]; source organism: Yellow fever virus,≥ 20000 nM
VLSEWLPVT,IC50,HLA-A*02:01 [2]; source organism: Rift Valley fever virus,15 nM
RYFSVTRPL,Kd,HLA-A*31:01 [14],512 nM
same,Kd,HLA-B*07:02 [3]; source organism: Homo sapiens,≥ 27600 nM
same,Kd,HLA-B*27:05,10600 nM
same,Kd,HLA-C*14:02; source organism: Anopheles gambiae str. PEST,≤ 1 nM
KFITHPFLW,Kd,HLA-A*24:02; source organism: Entamoeba histolytica HM-1:IMSS,≤ 1 nM
LRHSTAHLL,Kd,HLA-C*06:02; [29],13 nM
same,Kd,HLA-B*39:01; [29],71.3 nM
YLMPYSVYI,Kd,HLA-A*02:01 [15],≤ 1 nM
same,Kd,HLA-A*69:01 [16],≤ 1 nM
same,Kd,HLA-C*06:02; source organism: Variola virus,7 nM
ASYKIFRIEK,Kd,HLA-A*11:01 [17],0.9 nM
GLLGSPVRA,IC50,HLA-A*02:01 [2]; source organism: Homo sapiens,219 nM
GLIDIAPHQI,IC50,HLA-A*02:01 [2]; [24],49 nM
LMYDIINSV,Kd,HLA-C*06:02; [30],4440 nM
same,Kd,HLA-A*02:01 [10]; [30],0.6 nM
same,Kd,HLA-A*03:01 [18],≥ 35100 nM
same,Kd,HLA-A*11:01 [19],1300 nM
same,Kd,HLA-A*31:01 [20],4520 nM
same,Kd,HLA-A*33:01,≥ 20300 nM
same,Kd,HLA-A*68:01,≥ 77700 nM
same,Kd,HLA-B*07:02 [21],≥ 77500 nM
same,Kd,HLA-B*35:01 [22],≥ 77400 nM
same,Kd,HLA-B*51:01 [23],≥ 54500 nM
same,Kd,HLA-B*53:01,≥ 78200 nM
same,Kd,HLA-B*54:01,258 nM
